Positions count from the first letter of the chain named.
T1: APBA2_2, Q99767
T1 sequence (Q99767 654-744, limits assumed, looked up): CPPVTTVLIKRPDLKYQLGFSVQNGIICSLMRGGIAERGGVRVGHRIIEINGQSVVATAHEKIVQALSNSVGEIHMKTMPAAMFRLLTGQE

T2: APBA1_1, Q02410
T2 sequence (Q02410 651-752, limits assumed, looked up): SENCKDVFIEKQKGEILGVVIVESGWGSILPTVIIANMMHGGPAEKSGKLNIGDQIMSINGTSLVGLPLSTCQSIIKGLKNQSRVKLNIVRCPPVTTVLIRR

T3: GRIP1_4, Q9Y3R0
T3 sequence (Q9Y3R0 467-571, limits assumed, looked up): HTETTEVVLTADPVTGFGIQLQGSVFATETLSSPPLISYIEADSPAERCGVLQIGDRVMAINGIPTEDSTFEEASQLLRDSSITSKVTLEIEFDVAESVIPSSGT

T4: APBA1_2, Q02410
T4 sequence (Q02410 742-832, limits assumed, looked up): T1 sequence (Q99767 654-744, limits assumed, looked up) with K10R, K15R, A59P, Q65H, A66I, S70A, F84Y, G89A

T5: SNTB1, Q13884
T5 sequence (Q13884 107-205, limits assumed, looked up): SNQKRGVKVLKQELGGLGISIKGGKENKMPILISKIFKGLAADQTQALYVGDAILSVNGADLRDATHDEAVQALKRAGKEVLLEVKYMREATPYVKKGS

T6: RAPGEF6, Q8TEU7
T6 sequence (Q8TEU7 525-625, limits assumed, looked up): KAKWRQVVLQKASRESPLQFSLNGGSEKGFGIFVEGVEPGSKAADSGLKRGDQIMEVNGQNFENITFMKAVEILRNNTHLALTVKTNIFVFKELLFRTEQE

T7: NHERF3_1, Q5T2W1
T7 sequence (Q5T2W1 4-100, limits assumed, looked up): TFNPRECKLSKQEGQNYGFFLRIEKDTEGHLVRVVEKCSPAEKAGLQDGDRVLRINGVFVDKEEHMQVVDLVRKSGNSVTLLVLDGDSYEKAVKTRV

T8: FRMPD1, Q5SYB0
T8 sequence (Q5SYB0 52-145, limits assumed, looked up): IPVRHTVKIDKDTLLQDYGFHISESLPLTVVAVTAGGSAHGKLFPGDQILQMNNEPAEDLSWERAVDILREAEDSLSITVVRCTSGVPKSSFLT

T9: GRIP1_5, Q9Y3R0
T9 sequence (Q9Y3R0 568-668, limits assumed, looked up): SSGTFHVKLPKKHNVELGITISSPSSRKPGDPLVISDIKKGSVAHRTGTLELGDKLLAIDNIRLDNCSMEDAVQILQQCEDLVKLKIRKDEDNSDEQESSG

T10: LIN7B, Q9HAP6
T10 sequence (Q9HAP6 88-185, limits assumed, looked up): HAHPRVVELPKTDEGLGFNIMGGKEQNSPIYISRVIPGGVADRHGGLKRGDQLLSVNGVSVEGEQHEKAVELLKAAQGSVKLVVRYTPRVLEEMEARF

T11: HTRA4, P83105
T11 sequence (P83105 378-476, limits assumed, looked up): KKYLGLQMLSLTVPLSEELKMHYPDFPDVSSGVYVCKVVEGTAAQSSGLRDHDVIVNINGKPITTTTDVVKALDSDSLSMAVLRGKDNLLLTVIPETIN

T12: NHERF3_3, Q5T2W1
T12 sequence (Q5T2W1 238-333, limits assumed, looked up): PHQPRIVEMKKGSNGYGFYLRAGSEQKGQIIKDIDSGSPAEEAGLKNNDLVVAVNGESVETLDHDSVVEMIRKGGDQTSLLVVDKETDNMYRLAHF


Key:
Test in all cases: holdup assay
Set-up in all cases: key: below the threshold = too weak to quantify, mostly under pKd 3.1 to 4
Conditions in all cases: plain residues with an end cap or a label only (N-terminal biotin on a linker: ado-ado)
APBA2_2, Q99767 = molecular target: T1, APBA2_2, Q99767
LDB3, O75112 = molecular target: LDB3, O75112
DLG4_1, P78352 = molecular target: DLG4_1, P78352
APBA1_1, Q02410 = molecular target: T2, APBA1_1, Q02410
LAP2, Q96RT1 = molecular target: LAP2, Q96RT1
GRIP1_4, Q9Y3R0 = molecular target: T3, GRIP1_4, Q9Y3R0
APBA1_2, Q02410 = molecular target: T4, APBA1_2, Q02410
Inadl_6, Q8NI35 = molecular target: Inadl_6, Q8NI35
GRIP2_6, Q9C0E4 = molecular target: GRIP2_6, Q9C0E4
PARD3_3, Q8TEW0 = molecular target: PARD3_3, Q8TEW0
SNTB1, Q13884 = molecular target: T5, SNTB1, Q13884
DLG1_1, Q12959 = molecular target: DLG1_1, Q12959
RAPGEF6, Q8TEU7 = molecular target: T6, RAPGEF6, Q8TEU7
NHERF3_1, Q5T2W1 = molecular target: T7, NHERF3_1, Q5T2W1
GORASP2, Q9H8Y8 = molecular target: GORASP2, Q9H8Y8
FRMPD1, Q5SYB0 = molecular target: T8, FRMPD1, Q5SYB0
MAGI2_2, Q86UL8 = molecular target: MAGI2_2, Q86UL8
MAST1, Q9Y2H9 = molecular target: MAST1, Q9Y2H9
FRMPD3, Q5JV73 = molecular target: FRMPD3, Q5JV73
GRASP, Q7Z6J2 = molecular target: GRASP, Q7Z6J2
GRIP1_5, Q9Y3R0 = molecular target: T9, GRIP1_5, Q9Y3R0
LIN7B, Q9HAP6 = molecular target: T10, LIN7B, Q9HAP6
DLG2_3, Q15700 = molecular target: DLG2_3, Q15700
HTRA4, P83105 = molecular target: T11, HTRA4, P83105
GOPC, Q9HD26 = molecular target: GOPC, Q9HD26
NHERF3_3, Q5T2W1 = molecular target: T12, NHERF3_3, Q5T2W1

Sequence of LDB3, O75112 (O75112 1-94): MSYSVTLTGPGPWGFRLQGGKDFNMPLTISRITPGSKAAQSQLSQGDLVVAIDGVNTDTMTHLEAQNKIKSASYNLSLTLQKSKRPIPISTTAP
Sequence of Inadl_6, Q8NI35 (Q8NI35 1058-1167): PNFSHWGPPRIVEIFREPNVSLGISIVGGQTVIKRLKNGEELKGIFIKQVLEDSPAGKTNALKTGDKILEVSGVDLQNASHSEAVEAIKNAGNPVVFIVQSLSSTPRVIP
Sequence of GRASP, Q7Z6J2 (Q7Z6J2 96-193): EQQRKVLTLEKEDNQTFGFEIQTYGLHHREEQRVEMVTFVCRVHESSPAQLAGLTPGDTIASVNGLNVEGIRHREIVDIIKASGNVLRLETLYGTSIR
Sequence of LAP2, Q96RT1 (Q96RT1 other isoform, or with tags, fused parts or gaps): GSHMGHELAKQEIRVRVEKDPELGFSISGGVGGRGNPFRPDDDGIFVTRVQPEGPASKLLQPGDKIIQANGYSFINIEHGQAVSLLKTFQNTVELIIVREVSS
Sequence of FRMPD3, Q5JV73 (Q5JV73 12-100): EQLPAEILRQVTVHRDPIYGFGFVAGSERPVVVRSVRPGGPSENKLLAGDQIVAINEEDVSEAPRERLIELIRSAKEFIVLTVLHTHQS
Sequence of PARD3_3, Q8TEW0 (Q8TEW0 582-685): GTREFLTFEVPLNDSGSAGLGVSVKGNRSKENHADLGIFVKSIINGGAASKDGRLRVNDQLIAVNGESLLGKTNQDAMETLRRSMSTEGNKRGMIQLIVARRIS
Sequence of DLG4_1, P78352 (P78352 62-152): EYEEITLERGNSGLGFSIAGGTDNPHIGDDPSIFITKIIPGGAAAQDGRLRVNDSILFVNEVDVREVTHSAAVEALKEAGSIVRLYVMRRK
Sequence of GRIP2_6, Q9C0E4 (Q9C0E4 648-740): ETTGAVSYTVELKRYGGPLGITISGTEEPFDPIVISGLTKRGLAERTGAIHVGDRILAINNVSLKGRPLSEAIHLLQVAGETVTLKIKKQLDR
Sequence of MAST1, Q9Y2H9 (Q9Y2H9 962-1065): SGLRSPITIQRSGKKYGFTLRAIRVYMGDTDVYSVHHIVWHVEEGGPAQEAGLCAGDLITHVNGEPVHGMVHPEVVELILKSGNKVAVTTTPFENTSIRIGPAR
Sequence of MAGI2_2, Q86UL8 (Q86UL8 410-522): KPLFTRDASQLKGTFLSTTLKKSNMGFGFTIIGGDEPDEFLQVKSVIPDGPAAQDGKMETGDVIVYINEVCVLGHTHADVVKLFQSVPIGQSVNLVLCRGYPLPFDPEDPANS

Row | pKd (APBA2_2, Q99767) | pKd (LDB3, O75112) | pKd (DLG4_1, P78352) | pKd (APBA1_1, Q02410) | pKd (LAP2, Q96RT1) | pKd (GRIP1_4, Q9Y3R0) | pKd (APBA1_2, Q02410) | pKd (Inadl_6, Q8NI35) | pKd (GRIP2_6, Q9C0E4) | pKd (PARD3_3, Q8TEW0) | pKd (SNTB1, Q13884) | pKd (DLG1_1, Q12959) | pKd (RAPGEF6, Q8TEU7) | pKd (NHERF3_1, Q5T2W1) | pKd (GORASP2, Q9H8Y8) | pKd (FRMPD1, Q5SYB0) | pKd (MAGI2_2, Q86UL8) | pKd (MAST1, Q9Y2H9) | pKd (FRMPD3, Q5JV73) | pKd (GRASP, Q7Z6J2) | Binder | also measured
1 | below the threshold | below the threshold | 5.16 | below the threshold | 4.03 | below the threshold | 4.08 | 3.53 | below the threshold | 3.75 | 5.17 | 5.06 | below the threshold | below the threshold | 5.03 | below the threshold | 4.73 | 4.58 | below the threshold | 3.78 | PKLMGVETVV [DUSP10, Q9Y6W6] | pKd (GRIP1_5, Q9Y3R0): below the threshold; pKd (LIN7B, Q9HAP6): below the threshold; pKd (DLG2_3, Q15700): 4.21; pKd (HTRA4, P83105): 3.74; pKd (GOPC, Q9HD26): 4.25; pKd (NHERF3_3, Q5T2W1): below the threshold
2 | below the threshold | below the threshold | below the threshold | below the threshold | below the threshold | below the threshold | below the threshold | below the threshold | below the threshold | below the threshold | below the threshold | below the threshold | below the threshold | 3.68 | below the threshold | below the threshold | 3.67 | 3.6 | below the threshold | below the threshold | PEEGKKQSQC [GAGE12J, A6NER3] | pKd (GRIP1_5, Q9Y3R0): below the threshold; pKd (LIN7B, Q9HAP6): 3.74; pKd (DLG2_3, Q15700): 3.61; pKd (HTRA4, P83105): below the threshold; pKd (GOPC, Q9HD26): below the threshold; pKd (NHERF3_3, Q5T2W1): below the threshold
3 | 3.48 | below the threshold | below the threshold | 3.52 | below the threshold | below the threshold | below the threshold | below the threshold | 3.48 | below the threshold | 3.67 | below the threshold | below the threshold | 4.76 | below the threshold | below the threshold | below the threshold | 4.54 | below the threshold | 3.69 | QLAEIAESGL [ITK, Q08881] | pKd (GRIP1_5, Q9Y3R0): below the threshold; pKd (LIN7B, Q9HAP6): below the threshold; pKd (DLG2_3, Q15700): below the threshold; pKd (HTRA4, P83105): below the threshold; pKd (GOPC, Q9HD26): 3.73; pKd (NHERF3_3, Q5T2W1): below the threshold
4 | below the threshold | below the threshold | below the threshold | below the threshold | below the threshold | below the threshold | below the threshold | below the threshold | below the threshold | below the threshold | below the threshold | below the threshold | 3.7 | 4.48 | 3.57 | below the threshold | below the threshold | 4 | below the threshold | below the threshold | SSGSTSSSRI [ADGRG1, Q9Y653] | pKd (GRIP1_5, Q9Y3R0): below the threshold; pKd (LIN7B, Q9HAP6): 3.82; pKd (DLG2_3, Q15700): 3.73; pKd (HTRA4, P83105): below the threshold; pKd (GOPC, Q9HD26): 4; pKd (NHERF3_3, Q5T2W1): below the threshold
5 | below the threshold | below the threshold | below the threshold | below the threshold | 3.59 | below the threshold | below the threshold | below the threshold | below the threshold | below the threshold | below the threshold | below the threshold | 3.49 | below the threshold | below the threshold | below the threshold | below the threshold | 4.12 | below the threshold | below the threshold | EGGKKRESEA [APPL1, Q9UKG1] | pKd (GRIP1_5, Q9Y3R0): below the threshold; pKd (LIN7B, Q9HAP6): 3.75; pKd (DLG2_3, Q15700): 3.73; pKd (HTRA4, P83105): below the threshold; pKd (GOPC, Q9HD26): below the threshold; pKd (NHERF3_3, Q5T2W1): below the threshold

Reference: PMC9482650, “Quantitative fragmentomics allow affinity mapping of interactomes” (Nature Communications, 2022)
